This is an account of results in patent US20070086956A1, “Method for accelerating the rate of mucociliary clearance” (BAYER AKTIENGESELLSCHAFT, priority 1998, published 2007).

The subject of one assay is sheep airways. The experiment in a line: Tracheal mucus velocity in the sheep. The class given is in vivo. The protocol:
The aim of this study was to investigate the effect of the Kunitz family serine protease inhibitor Bikunin (1-170) described in Example 17 on sheep trachcal mucus velocity over 8 hours after treatment. This agent was delivered by nebulised aerosol administration to the airways. The procedure used in this example is described in O'Riordan et al., J. Applied Physiol. 85(3), 1086-1091, 1998.
Adult ewes were restrained in an upright position, with their heads immobilized, in a specialized body harness. They were nasally intubated with an endotracheal tube, with the cuff placed just below the vocal cords. The inspired air was warmed and humidified. To minimize possible impairment of TMV caused by inflated cuffs, the endotracheal tube cuff remained deflated throughout the study except for the period of aerosol administration.
To measure TMV 5 to 10 radiopaque Teflon particles (approximately 1 mm in diameter, 0.8 mm thick, and weighing 1.5 to 2 mg) were insufflated into the trachea via a catheter placed within the endotracheal tube. The movement of the Teflon particles was then measured over a 1 minute period. The procedure used in this example is described in Russi et al., J. Applied Physiol. 59(5), 1416-1422, 1985. A collar containing radiopaque markers of known length was applied to the exterior of the animals and used as a standard to convert distance traversed by the particles on the video screen to actual distance traveled. TMV was calculated from the average distance in a cephalad direction traveled per minute for 5 to 10 Teflon particles. Baseline TMV was measured immediately prior to administration of aerosol.
Test substances; PBS, 1 mg/mL Bikunin in PBS, or 3 mg/mL Bikunin in PBS; were delivered to the sheep airways as an aerosol (3 mL) generated using a Raindrop jet nebuliser operated at a flow rate that produced droplets of mass median aerodynamic diameter of 3.6 um. […]

For assay [1], the system named is human bronchial epithelial cell (HBE). The settings on record: cited from earlier work.

B1: CHO Bikunin (1-170): Glycosylated placental bikunin (1-170), SEQ ID NO: 52, expressed in Chinese hamster ovary cells (Example 17) (protein, listed as Homo sapiens)
chain: ADRERSIHDFCLVSKVVGRCRASMPRWWYNVTDGSCQLFVYGGCDGNSNNYLTKEECLKKCATVTENATGDLATSRNAADSSVPSAPRRQDSEDHSSDMFNYEEYCTANAVTGPCRASFPRWYFDVERNSCNNFIYGGCRGNKNSYRSEEACMLRCFRQQENPPLPLGSK
modifications: glycosylated, CHO-expressed
As for B1, the TMV entry is on record as “no significant differences” in the assay with sheep airways (3 mg aerosol (3 mL of 1 mg/mL), any time point versus vehicle); “significantly increased TMV” in the assay with sheep airways (9 mg aerosol (3 mL of 3 mg/mL), at 0, 0.5, 3, 4, 5, 6, 7, and 8 hours versus PBS vehicle, FIG. 22); “returned to baseline rates” with sheep airways (9 mg aerosol, at 24 hours). In assay [1] (70 nM, in 90 minutes (McAulay et al 1998)), the “inhibition of the baseline Isc” value is reported as 58%. Further, the “inhibition of Na+ Isc” value in assay [1] (1.5 ug.ml−1: 70 nM, normal HBE cells, n=5-8 (McAulay et al 1998)) was 54%.
